Here are results for 80 sequences from the supplement of paper PMC10724198.

± gives the standard deviation of the averaged measurements.
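Further: PSI is a weighted mean of sequencing reads over stability bins, variants kept only with over 10 reads, mCherry proximal and sfGFP distal, peptide attached via GGGS linker.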

The subject of this data set is Saccharomyces cerevisiae. The data set can be described thus: protein stability index of tFT-peptide fusion (C-terminal peptide) (PSI (0-1 scale)); higher = more stable (slower turnover). The conditions noted are these: genetic background: wild type; temperature: 30 C.
TPSFTLNAYMLT showed a protein stability index of 0.693 ± 0.014.

TPTPPPSFLHGS gave a protein stability index of 0.663 ± 0.046.

In turn, TPTPPRPPFRSP returned a protein stability index of 0.709 ± 0.035.

The sequence TPVLPLSPFPPD had a protein stability index of 0.607 ± 0.059.

Regarding TPVPIARLRESH, the protein stability index is 0.709 ± 0.035.

For TPVVSVFFLPHY, the protein stability index is 0.673 ± 0.0095.

TQHPQPCPLAAV yielded a protein stability index of 0.712 ± 0.12.

Sequence TQSNRKPLECPS yielded a protein stability index of 0.679 ± 0.066.

The sequence TRGGTVKDRQQR registered a protein stability index of 0.702 ± 0.037.

Consider TRGSLIFACSVF, for which the protein stability index is 0.576 ± 0.033.

TRIEPTQGVDSP registered a protein stability index of 0.664 ± 0.01.

Turning to TRPKINKGKGTG, the protein stability index was found to be 0.6677 ± 0.0014.

In turn, TRQGDLYYYLYV displayed a protein stability index of 0.67 ± 0.024.

TRRKVKYTELYQ returned a protein stability index of 0.69 ± 0.041.

Consider TRRVKWSWLLKP, for which the protein stability index stood at 0.7 ± 0.08.

TRSAFPSFPTRS had a protein stability index of 0.68 ± 0.02.

Take TRTSRGRTLTTL: the protein stability index worked out at 0.583 ± 0.016.

For the sequence TRVGNMVARRGS, the protein stability index turned out to be 0.687 ± 0.048.

For TSFAPPSLPRHS, the protein stability index was found to be 0.735 ± 0.056.

Consider TSGAEKLPIANS, for which the protein stability index worked out at 0.648 ± 0.05.

For TSGAKKISSGTQ, the protein stability index was 0.707 ± 0.036.

As to TSLPPNLMRTAA, the protein stability index was 0.634 ± 0.04.

TSNGSGLMFQSQ showed a protein stability index of 0.62 ± 0.019.

Take TSNLRIISTWRV: the protein stability index was 0.685 ± 0.024.

In turn, TSPGCPFAFITL came in with a protein stability index of 0.714 ± 0.052.

TSPPPPIPLPPR had a protein stability index of 0.695 ± 0.032.

In turn, TSPSPLPPLFFT returned a protein stability index of 0.706 ± 0.0087.

The sequence TSPTKSPTTTNN returned a protein stability index of 0.709 ± 0.039.

The sequence TSSTATWSYRNY yielded a protein stability index of 0.673 ± 0.036.

For TSTHSFLDFGTG, the protein stability index is 0.6272 ± 0.0011.

As for TSTTGLHVSAMS, the protein stability index is 0.727 ± 0.021.

For TSVVRIGVYRAS, the protein stability index was 0.613 ± 0.037.

TTGNTHALSHAH had a protein stability index of 0.717 ± 0.055.

Sequence TTLNAETCFPLS registered a protein stability index of 0.702 ± 0.043.

The sequence TTLPFLLGSGGF showed a protein stability index of 0.677 ± 0.065.

Regarding TTVESYLDRRRY, the protein stability index is 0.664 ± 0.035.

For TTVSSSLSPVPD, the protein stability index came out at 0.7181 ± 0.0054.

Consider TVERGGSLSLVV, for which the protein stability index worked out at 0.718 ± 0.026.

On to TVKAGESILEQR, for which the protein stability index amounted to 0.716 ± 0.013.

For TVMRPSVGHVDG, the protein stability index came out at 0.68 ± 0.038.

On to TVSRNKKKKQIQ, for which the protein stability index was 0.613 ± 0.038.

Sequence TVVYPFHSGGFA yielded a protein stability index of 0.694 ± 0.024.

The sequence TWGRPGGDHPRE yielded a protein stability index of 0.708 ± 0.0096.

The sequence TWRRAVSERPYP showed a protein stability index of 0.725 ± 0.1.

For TWRRGSKPHVRS, the protein stability index amounted to 0.724 ± 0.044.

Take TYKKAKIRKKYI: the protein stability index came out at 0.6237 ± 0.0045.

Consider TYLGISNLHPAI, for which the protein stability index came out at 0.709 ± 0.031.

TYLSAWQFCVAS yielded a protein stability index of 0.579 ± 0.049.

Sequence TYRPEMYSRVLT showed a protein stability index of 0.738 ± 0.011.

Regarding TYRYWGTLRYYD, the protein stability index was determined as 0.761 ± 0.07.

TYVPRYPPPLFP registered a protein stability index of 0.72 ± 0.061.

In turn, VAACVSLFCGAL showed a protein stability index of 0.719 ± 0.074.

Turning to VAAEGCGAALSR, the protein stability index stood at 0.627 ± 0.0099.

VAESCVIVFWLG returned a protein stability index of 0.506 ± 0.0056.

Sequence VAGGGGGCLVDC registered a protein stability index of 0.646 ± 0.022.

In turn, VAGKVWREAEPG had a protein stability index of 0.656 ± 0.029.

Take VAGSQYTAGGDV: the protein stability index turned out to be 0.635 ± 0.044.

In turn, VALSSECVLSGV registered a protein stability index of 0.656 ± 0.025.

The sequence VARLCVPSGPGH displayed a protein stability index of 0.721 ± 0.0096.

In turn, VASLSGGQISFG yielded a protein stability index of 0.612 ± 0.029.

Consider VASTSLPDIRGV, for which the protein stability index was found to be 0.631 ± 0.07.

On to VASWNSDKTKND, for which the protein stability index was found to be 0.752 ± 0.12.

For the sequence VAVGIEGGWWGV, the protein stability index turned out to be 0.78 ± 0.042.

Regarding VAYRGGGGWRIS, the protein stability index was determined as 0.6865 ± 0.005.

Turning to VAYSKWIGEIRD, the protein stability index was determined as 0.71 ± 0.038.

The sequence VAYYFVRNIIGE came in with a protein stability index of 0.667 ± 0.056.

As for VCAVAQPCRVQL, the protein stability index came out at 0.683 ± 0.025.

In the case of VCCDRWWFAFWE, the protein stability index amounted to 0.7241 ± 0.0012.

With VCGPCVESLETR, the protein stability index is 0.689 ± 0.059.

In turn, VCGVSWSRFPVL had a protein stability index of 0.716 ± 0.0099.

The sequence VCILPVTCAGMF registered a protein stability index of 0.6224 ± 0.0012.

VCLFWGVSAGCK yielded a protein stability index of 0.65 ± 0.04.

With VCLGGWCMWGWR, the protein stability index amounted to 0.585 ± 0.017.

Turning to VCNLIRILSLVI, the protein stability index came out at 0.496 ± 0.031.

The sequence VCVCCMGCGLGV registered a protein stability index of 0.68773 ± 5.6e-05.

On to VCVGCAACIVGV, for which the protein stability index is 0.636 ± 0.026.

In the case of VCVVGGSILRAV, the protein stability index was 0.711 ± 0.048.

As for VCWLTCCGQLIA, the protein stability index stood at 0.514 ± 0.0068.

The sequence VCWVRGGGVLDG registered a protein stability index of 0.711 ± 0.053.

In turn, VCYGELTISNLE registered a protein stability index of 0.654 ± 0.045.
